This is an account of results in the supplement of paper PMC5998384.

For series [1], the system named is HeLa Kyoto. The series is described as follows: melting temperature (median over replicates), in situ; higher = more thermally stable.
Series [2] deals with HeLa Kyoto. Description: solubility in G1/S (NP-40 vs SDS abundance) (log2 ratio); higher = more soluble. To be noted: cell cycle stage: G1/S.
Series [3] relates to HeLa Kyoto. The series is described as follows: solubility change mitosis vs G1/S (difference of NP-40 vs SDS log2 ratios) (log2 ratio difference); higher = more soluble in mitosis.
Series [4] has as its system HeLa Kyoto. The series is described as follows: thermal stability score vs G1/S (z-score of summed log2 fold changes over temperatures); higher = more thermally stable than in G1/S.
The mark [5] stands for this setting: cell cycle stage: early G1 (4.5 h after nocodazole release).
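Wherever melting temperature (median over replicates), in situ is given: HeLa Kyoto cells synchronized by double thymidine or nocodazole block, proteins quantified by TMT10plex mass spectrometry, three independent biological replicates.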
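Wherever solubility change mitosis vs G1/S (difference of NP-40 vs SDS log2 ratios) is given: synchronized HeLa Kyoto cells (double thymidine block for G1/S, nocodazole release for mitosis), protein amounts in NP-40 versus SDS lysates quantified by mass spectrometry, three biological replicates.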
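Wherever solubility in G1/S (NP-40 vs SDS abundance) is given: HeLa Kyoto cells arrested at G1/S by double thymidine block, proteins quantified by TMT10plex mass spectrometry in mild NP-40 versus SDS extracts, three biological replicates.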
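Wherever thermal stability score vs G1/S (z-score of summed log2 fold changes over temperatures) is given: synchronized HeLa Kyoto cells, proteins quantified by TMT10plex mass spectrometry, three biological replicates, mitosis taken 0.5 h after nocodazole release, G1/S directly after double thymidine block.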

Regarding “MAARQAVGSGAQETCGLDRILEALKLLLSPGGSGSSSLQVTKHDVLLATLKSNLSALEDKFLKDPQWKNLKLLRDEIADKAEWPQNSVDVTWSFTSQTLLLLLCLKETMIRLAANFNPGKPNPRTPEVAPALSPDALSISQQKTVQFVLQFVVTLGICPYLMPGVGVPLRYRTEFGAVVQDVVCFDAAPDATRRLYTSCKALLNVAQHTSLGSLIFCHHFGDIAAGLCQLGFCPTKRKLLTPAEEVLTEEERTLSRGALRDMLDQVYQPLAVRELLILQGGPPQSCTDVKTQMRCRAPAWLRRLCGQLLSERLMRPNGVQAVVRGILEGAGAGAAGGSDAEVTAADWKKCDLIAKILASCPQQSLSPENYYRDICPQVLDLFHFQDKLTARQFQRVATTTFITLSRERPHLAAKYLLQPVLAPLHRCLNTAELSESDMVPGTILVTEEELSRCIEDVFKVYVVGNEPLTVLMDSLLPVLGVLFLLYCFTKQSVSHIRSLCQEILLWILGKLERKKAIASLKGFAGLDKAVPSLHSLCQFRVATQGGIMITIKEAISDEDEDEALYQKVSSEQGRVEHLGDLLSHCQECGLAGDFFIFCLKELTHVASENETELKTEPFSSKSLLELEQHQTLLVEGQERKLLVLQLMAVLCERMSEQIFTNVTQVVDFVAATLQRACASLAHQAESTVESQTLSMSMGLVAVMLGGAVQLKSSDFAVLKQLLPLLEKVSNTYPDPVIQELAVDLRITISTHGAFATEAVSMAAQSTLNRKDLEGKIEEQQQTSHERPTDVAHSHLEQQQSHETAPQTGLQSNAPIIPQGVNEPSTTTSQKSGSVTTEQLQEVLLSAYDPQIPTRAAALRTLSHWIEQREAKALEMQEKLLKIFLENLEHEDTFVYLSAIQGVALLSDVYPEKILPDLLAQYDSSKDKHTPETRMKVGEVLMRIVRALGDMVSKYREPLIHTFLRGVRDPDGAHRASSLANLGELCQRLDFLLGSVVHEVTACLIAVAKTDGEVQVRRAAIHVVVLLLRGLSQKATEVLSAVLKDLYHLLKHVVCLEPDDVAKLHAQLALEELDDIMKNFLFPPQKLEKKIMVLP [TANGO6]”, the melting temperature turned out to be 50.6 °C in series [1] (cell cycle stage: G1/S) and 50.3 °C in series [1] (cell cycle stage: mitosis). In series [2], the “solubility in G1/S (log2)” value is -0.171. For the same sequence, the “solubility change mitosis (log2)” value in series [3] is -0.193. For the same sequence, the thermal stability score amounted to 0.0292 in series [4] (setting [5]) and 0.767 in series [4] (cell cycle stage: mitosis).
On to “MAARRALHFVFKVGNRFQTARFYRDVLGMKVESCSVARLECSGAISAHCSDYTRITEDSFSKPYDGKWSKTMVGFGPEDDHFVAELTYNYGVGDYKLGNDFMGITLASSQAVSNARKLEWPLTEVAEGVFETEAPGGYKFYLQNRSLPQSDPVLKVTLAVSDLQKSLNYWCNLLGMKIYEKDEEKQRALLGYADNQCKLELQGVKGGVDHAAAFGRIAFSCPQKELPDLEDLMKRENQKILTPLVSLDTPGKATVQVVILADPDGHEICFVGDEAFRELSKMDPEGSKLLDDAMAADKSDEWFAKHNKPKASG [GLOD4]”, for which the melting temperature in series [1] (cell cycle stage: G1/S) amounted to 50.8 °C; in series [1] (cell cycle stage: mitosis) it was 50.9 °C. Besides, in series [2], the “solubility in G1/S (log2)” value was 0.42. Further, the “solubility change mitosis (log2)” value in series [3] is -0.012. Also, the figures for the thermal stability score in series [4] (setting [5]) and in series [4] (cell cycle stage: mitosis) were 0.704 and 0.532, respectively.
Consider “MAARWRFWCVSVTMVVALLIVCDVPSASAQRKKEMVLSEKVSQLMEWTNKRPVIRMNGDKFRRLVKAPPRNYSVIVMFTALQLHRQCVVCKQADEEFQILANSWRYSSAFTNRIFFAMVDFDEGSDVFQMLNMNSAPTFINFPAKGKPKRGDTYELQVRGFSAEQIARWIADRTDVNIRVIRPPNYAGPLMLGLLLAVIGGLVYLRRSNMEFLFNKTGWAFAALCFVLAMTSGQMWNHIRGPPYAHKNPHTGHVNYIHGSSQAQFVAETHIVLLFNGGVTLGMVLLCEAATSDMDIGKRKIMCVAGIGLVVLFFSWMLSIFRSKYHGYPYSFLMS [MAGT1]”, for which the results for the melting temperature in series [1] (cell cycle stage: G1/S) and in series [1] (cell cycle stage: mitosis) were 53.9 °C and 53.3 °C, respectively. The “solubility in G1/S (log2)” value in series [2] is -0.189. The “solubility change mitosis (log2)” value in series [3] was -0.0398. The thermal stability score in series [4] (setting [5]) came out at 2.09; in series [4] (cell cycle stage: mitosis), 2.05.
“MAASKPVEAAVVAAAVPSSGSGVGGGGTAGPGTGGLPRWQLALAVGAPLLLGAGAIYLWSRQQRRREARGRGDASGLKRNSERKTPEGRASPAPGSGHPEGPGAHLDMNSLDRAQAAKNKGNKYFKAGKYEQAIQCYTEAISLCPTEKNVDLSTFYQNRAAAFEQLQKWKEVAQDCTKAVELNPKYVKALFRRAKAHEKLDNKKECLEDVTAVCILEGFQNQQSMLLADKVLKLLGKEKAKEKYKNREPLMPSPQFIKSYFSSFTDDIISQPMLKGEKSDEDKDKEGEALEVKENSGYLKAKQYMEEENYDKIISECSKEIDAEGKYMAEALLLRATFYLLIGNANAAKPDLDKVISLKEANVKLRANALIKRGSMYMQQQQPLLSTQDFNMAADIDPQNADVYHHRGQLKILLDQVEEAVADFDECIRLRPESALAQAQKCFALYRQAYTGNNSSQIQAAMKGFEEVIKKFPRCAEGYALYAQALTDQQQFGKADEMYDKCIDLEPDNATTYVHKGLLQLQWKQDLDRGLELISKAIEIDNKCDFAYETMGTIEVQRGNMEKAIDMFNKAINLAKSEMEMAHLYSLCDAAHAQTEVAKKYGLKPPTL [TOMM70A]”: the melting temperature in series [1] (cell cycle stage: G1/S) was found to be 50.4 °C; in series [1] (cell cycle stage: mitosis) it was 50.1 °C. In addition, the “solubility in G1/S (log2)” value in series [2] is 0.504. Besides, the “solubility change mitosis (log2)” value in series [3] was found to be 0.0273. The figures for the thermal stability score in series [4] (setting [5]) and in series [4] (cell cycle stage: mitosis) were 2.06 and 2.92, respectively.
